Results published in article PMC3589475, “Large-Scale Functional Purification of Recombinant HIV-1 Capsid” (PLoS ONE, 2013).

B1: CAI peptide (peptide)
peptide: ITFEDLLDYYGP
notes: source: synthetic peptide, bought: AnaSpec Inc
B2: CAI-4 peptide (peptide)
peptide: ITFEDLLDYYK
notes: variant of CAI peptide with a lysine residue replacing the last two C-terminal amino acids; source: synthetic peptide, bought: AnaSpec Inc

What was measured:
[1] = target: T1, wild-type HIV-1 capsid protein (WT CA) (HIV-1 (pLAI.2), UniProt P03348 133-363, biotin (EZ-link Sulfo-NHS-LC-LC-biotin, 1 biotin per molecule) in the SPR only); test: SPR; Biacore T100; minimally biotinylated WT CA or CA 4Mu hexamer captured on neutravidin on CM5 chips, CAI injected (100 µM and 3-fold dilutions); 50 mM sodium phosphate pH 7.5, 150 mM NaCl, 0.01% P20; steady-state one-site fit; conditions: both partners purified
T1 construct: HIV-1 capsid protein (CA), the 231 residues of wild-type CA amplified from the infectious HIV-1 cDNA plasmid pLAI.2; The 5' primer added a codon for an N-terminal methionine; untagged (pET30a NdeI/XhoI, stop codon); also called CA FL; full-length wild-type capsid protein; source: E. coli BL21(DE3), purified (ammonium sulfate cut, two rounds of polymerization/depolymerization, Q-HP flow-through); …

[2] = target: T1, wild-type HIV-1 capsid protein (WT CA); test: turbidity (absorbance at 350 nm) polymerization assay with inhibitor; 40 µM WT CA pre-incubated with inhibitor (2-fold serial dilution from 20 µM final for CAI-4), 50 mM sodium phosphate pH 7.5, 2 M NaCl, 0.005% Antifoam 204, 1% DMSO, 25°C; IC50 from initial rates; conditions: both partners purified

Binder	Kd [1] [nM]	IC50 [2] [µM]
B1	1380	–
B2	–	4.7 ± 0.9
